Reference: IntAct's records for PubMed 30845169

B1: Centrosomal protein POC5 (Homo sapiens), Q8NA72 (parent)
chain: MSSDEEKYSLPVVQNDSSRGSSVSSNLQEEYEELLHYAIVTPNIEPCASQSSHPKGELVPDVRISTIHDILHSQGNNSEVRETAIEVGKGCDFHISSHSKTDESSPVLSPRKPSHPVMDFFSSHLLADSSSPATNSSHTDAHEILVSDFLVSDENLQKMENVLDLWSSGLKTNIISELSKWRLNFIDWHRMEMRKEKEKHAAHLKQLCNQINELKELQKTFEISIGRKDEVISSLSHAIGKQKEKIELMRTFFHWRIGHVRARQDVYEGKLADQYYQRTLLKKVWKVWRSVVQKQWKDVVERACQARAEEVCIQISNDYEAKVAMLSGALENAKAEIQRMQHEKEHFEDSMKKAFMRGVCALNLEAMTIFQNRNDAGIDSTNNKKEEYGPGVQGKEHSAHLDPSAPPMPLPVTSPLLPSPPAAVGGASATAVPSAASMTSTRAASASSVHVPVSALGAGSAATAASEEMYVPRVVTSAQQKAGRTITARITGRCDFASKNRISSSLAIMGVSPPMSSVVVEKHHPVTVQTIPQATAAKYPRTIHPESSTSASRSLGTRSAHTQSLTSVHSIKVVD

Variants of: B1
Settings: with tba4a_human TUBA4A

Variant | effect of a mutation on the interaction
MSSDEEKYSLPVVQNDSSRGSSVSSNLQEEYEELLHYAIVTPNIEPCASQSSHPKGELVPDVRISTIHDILHSQGNNSEVRETAIEVGKGCDFHISSHSKTDESSPVLSPRKPSHPVMDFFSSHLLADSSSPATNSSHTDAHEILVSDFLVSDENLQKMENVLDLWSSGLKTNIISELSKWRLNFIDWHRMEMRKEKEKHAAHLKQLCNQINELKELQKTFEISIGRKDEVISSLSHAIGKQKEKIELMRTFFHWRIGHVRARQDVYEGKLADQYYQRTLLKKVWKVWRSVVQKQWKDVVERACQARAEEVCIQISNDYEAKVAMLSGALENAKAEIQRMQHEKEHFEDSMKKAFMRGVCALNLEAMTIFQNRNDAGIDSTNNKKEEYGPGVQGKEHSAHLDPSAPPMPLPVTSPLLPSPPAAVGGASVTAVPSAASMTSTRAASASSVHVPVSALGAGSAATAASEEMYVPRVVTSAQQKAGRTITARITGRCDFASKNRISSSLAIMGVSPPMSSVVVEKHHPVTVQTIPQATAAKYPRTIHPESSTSASRSLGTRSAHTQSLTSVHSIKVVD [A429V] | decreasing interaction strength

Variants of: B1
Settings: with tba4a_human TUBA4A
Remark: another data set of the same source

Variant | effect of a mutation on the interaction
MSSDEEKYSLPVVQNDSSRGSSVSSNLQEEYEELLHYAIVTPNIEPCASQSSHPKGELVPDVRISTIHDILHSQGNNSEVRETAIEVGKGCDFHISSHSKTDESSPVLSPRKPSHPVMDFFSSHLLADSSSPATNSSHTDAHEILVSDFLVSDENLQKMENVLDLWSSGLKTNIISELSKWRLNFIDWHRMEMRKEKEKHAAHLKQLCNQINELKELQKTFEISIGRKDEVISSLSHAIGKQKEKIELMRTFFHWRIGHVRARQDVYEGKLADQYYQRTLLKKVWKVWRSVVQKQWKDVVERACQARAEEVCIQISNDYEAKVAMLSGALENAKAEIQRMQHEKEHFEDSMKKAFMRGVCALNLEAMTIFQNRNDAGIDSTNNKKEEYGPGVQGKEHSAHLDPSAPPMPLPVTSPLLPSPPAAVGGASVTAVPSAASMTSTRAASASSVHVPVSALGAGSAATAASEEMYVPRVVTSAQQKAGRTITARITGRCDFASKNRISSSLAIMGVSPPMSSVVVEKHHPVTVQTIPQATAAKYPRTIHPESSTSASRSLGTRSAHTQSLTSVHSIKVVD [A429V] | disrupting interaction strength
